# Laboratory results: US9051392 (dated 2015)
# T1: HA-Fas 1-210:GFP (human, UniProt P25445)
# T1 chain: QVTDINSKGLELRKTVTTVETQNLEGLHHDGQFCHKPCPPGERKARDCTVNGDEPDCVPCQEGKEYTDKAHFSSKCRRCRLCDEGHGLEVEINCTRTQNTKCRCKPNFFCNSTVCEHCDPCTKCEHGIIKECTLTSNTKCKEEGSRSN
# T2: Fas (human, UniProt P25445)
# T2 chain: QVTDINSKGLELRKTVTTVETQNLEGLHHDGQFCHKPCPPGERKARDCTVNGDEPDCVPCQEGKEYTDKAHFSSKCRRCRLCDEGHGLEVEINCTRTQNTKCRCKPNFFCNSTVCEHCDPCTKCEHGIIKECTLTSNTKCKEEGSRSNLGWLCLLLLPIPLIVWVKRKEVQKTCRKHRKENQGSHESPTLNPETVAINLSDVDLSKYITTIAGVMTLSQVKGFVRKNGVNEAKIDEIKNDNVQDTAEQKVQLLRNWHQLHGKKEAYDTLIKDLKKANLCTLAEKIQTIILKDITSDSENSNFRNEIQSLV
# T3: p60ΔCD-GFP-HA (human, UniProt P19438)
# T3 chain: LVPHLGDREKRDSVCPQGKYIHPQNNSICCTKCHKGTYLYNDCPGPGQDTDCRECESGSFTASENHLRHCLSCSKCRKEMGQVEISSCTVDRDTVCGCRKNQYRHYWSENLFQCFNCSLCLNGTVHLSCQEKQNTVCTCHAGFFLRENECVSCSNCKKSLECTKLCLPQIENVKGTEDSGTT
# T4: Fas Pt 2 (deletion 52-96) (human, UniProt P25445)
# T4 chain: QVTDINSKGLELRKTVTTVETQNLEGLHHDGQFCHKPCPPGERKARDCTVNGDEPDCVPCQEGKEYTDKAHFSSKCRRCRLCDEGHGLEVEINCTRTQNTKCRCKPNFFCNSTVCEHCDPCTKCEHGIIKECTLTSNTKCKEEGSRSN
# B1: Fas deletion 1-66 (protein)
# chain: QVTDINSKGLELRKTVTTVETQNLEGLHHDGQFCHKPCPPGERKARDCTVNGDEPDCVPCQEGKEYTDKAHFSSKCRRCRLCDEGHGLEVEINCTRTQNTKCRCKPNFFCNSTVCEHCDPCTKCEHGIIKECTLTSNTKCKEEGSRSN
# What was measured:
# HA-Fas 1-210:GFP = target: T1, HA-Fas 1-210:GFP; test: other (co-immunoprecipitation)
# Fas = target: T2, Fas; test: other (co-immunoprecipitation)
# p60ΔCD-GFP-HA = target: T3, p60ΔCD-GFP-HA; test: other (co-immunoprecipitation)
# Fas deletion 1-66 = target: B1; test: FACS
# [1] = target: T4, Fas Pt 2 (deletion 52-96); test: FACS
binding result (HA-Fas 1-210:GFP),binding result (p60ΔCD-GFP-HA),Binder,further results
no binding,,Fas deletion 1-43 (protein) QVTDINSKGLELRKTVTTVETQNLEGLHHDGQFCHKPCPPGERKARDCTVNGDEPDCVPCQEGKEYTDKAHFSSKCRRCRLCDEGHGLEVEINCTRTQNTKCRCKPNFFCNSTVCEHCDPCTKCEHGIIKECTLTSNTKCKEEGSRSN,
no binding,,B1,
,,HVEMΔCD:GFP (protein) LPSCKEDEYPVGSECCPKCSPGYRVKEACGELTGTVCEPCPPGTYIAHLNGLSKCLQCQMCDPAMGLRASRNCSRTENAVCGCSPGHFCIVQDGDHCAACRAYATSSPGQRVQKGGTESQDTLCQNCPPGTFSPNGTLEECQHQTKCSWLVTKAGAGTSSSHWV,binding result (Fas): no binding
,no binding,p60ΔCD K32A (protein) LVPHLGDREKRDSVCPQGKYIHPQNNSICCTACHKGTYLYNDCPGPGQDTDCRECESGSFTASENHLRHCLSCSKCRKEMGQVEISSCTVDRDTVCGCRKNQYRHYWSENLFQCFNCSLCLNGTVHLSCQEKQNTVCTCHAGFFLRENECVSCSNCKKSLECTKLCLPQIENVKGTEDSGTT,
,no binding,p60ΔCD KY19/20AA (protein) LVPHLGDREKRDSVCPQGAAIHPQNNSICCTKCHKGTYLYNDCPGPGQDTDCRECESGSFTASENHLRHCLSCSKCRKEMGQVEISSCTVDRDTVCGCRKNQYRHYWSENLFQCFNCSLCLNGTVHLSCQEKQNTVCTCHAGFFLRENECVSCSNCKKSLECTKLCLPQIENVKGTEDSGTT,
,,Fas ligand (trimerized) (protein) PSPPPEKKELRKVAHLTGKSNSRSMPLEWEDTYGIVLLSGVKYKKGGLVINETGLYFVYSKVYFRGQSCNNLPLSHKVYMRNSKYPQDLVMMEGKMMSYCTTGQMWARSSYLGAVFNLTSADHLYVNVSELSLVNFEESQTFFGLYKL,binding result (Fas deletion 1-66): no binding; binding result [1]: no binding
